# B1: Pamitoyl-Ser-Tyr-Ser-Nle-Glu-His-DPhe-Arg-(3-(2-Naphthyl)-D-alanine)-Gly-Lys-DPro-Val-NH-(CH2)3-(OCH2CH2)2-CH2-NH2, coupled to capsules (peptide)
# peptide: SYSXEHFRXGKPV
# modifications: N-terminal palmitoyl; Nle at 4 (X); D-Phe at 7; 3-(2-Naphthyl)-D-alanine at 9 (X); D-Pro at 12; C-terminal NH-(CH2)3-(OCH2CH2)2-CH2-NH2
# notes: Coupled to the outer surface of fluorescent polymer capsules in the assay; also called peptide of formula (I), AA1 = 3-(2-Naphthyl)-D-alanine
# B2: Pamitoyl-Ser-Tyr-Ser-Nle-Glu-His-DPhe-Arg-(3-amino-3-(1-naphthyl) propionic acid)-Gly-Lys-DPro-Val-NH-(CH2)3-(OCH2CH2)2-CH2-NH2, coupled to capsules (peptide)
# peptide: SYSXEHFRXGKPV
# modifications: N-terminal palmitoyl; Nle at 4 (X); D-Phe at 7; 3-amino-3-(1-naphthyl) propionic acid at 9 (X); D-Pro at 12; C-terminal NH-(CH2)3-(OCH2CH2)2-CH2-NH2
# notes: Coupled to the outer surface of fluorescent polymer capsules in the assay; also called peptide of formula (I), AA1 = 3-amino-3-(1-naphthyl) propionic acid
# B3: Pamitoyl-Ser-Tyr-Ser-Nle-Glu-His-DPhe-Arg-(3-amino-3-(biphenyl) propionic acid)-Gly-Lys-DPro-Val-NH-(CH2)3-(OCH2CH2)2-CH2-NH2, coupled to capsules (peptide)
# peptide: SYSXEHFRXGKPV
# modifications: N-terminal palmitoyl; Nle at 4 (X); D-Phe at 7; 3-amino-3-(biphenyl) propionic acid at 9 (X); D-Pro at 12; C-terminal NH-(CH2)3-(OCH2CH2)2-CH2-NH2
# notes: Coupled to the outer surface of fluorescent polymer capsules in the assay; also called peptide of formula (I), AA1 = 3-amino-3-(biphenyl) propionic acid
# B4: Pamitoyl-Ser-Tyr-Ser-Nle-Glu-His-DPhe-Arg-His-Gly-Lys-DPro-Val-NH-(CH2)3-(OCH2CH2)2-CH2-NH2, coupled to capsules (peptide)
# peptide: SYSXEHFRHGKPV
# modifications: N-terminal palmitoyl; Nle at 4 (X); D-Phe at 7; D-Pro at 12; C-terminal NH-(CH2)3-(OCH2CH2)2-CH2-NH2
# notes: Coupled to the outer surface of fluorescent polymer capsules in the assay; Stereochemistry of the residue at 9 is not specified; also called peptide of formula (I), AA1 = Histidine
# B5: Pamitoyl-Ser-Tyr-Ser-Nle-Glu-His-DPhe-Arg-Phe-Gly-Lys-DPro-Val-NH-(CH2)3-(OCH2CH2)2-CH2-NH2, coupled to capsules (peptide)
# peptide: SYSXEHFRFGKPV
# modifications: N-terminal palmitoyl; Nle at 4 (X); D-Phe at 7; D-Pro at 12; C-terminal NH-(CH2)3-(OCH2CH2)2-CH2-NH2
# notes: Coupled to the outer surface of fluorescent polymer capsules in the assay; Stereochemistry of the residue at 9 is not specified; also called peptide of formula (I), AA1 = Phenylalanine
# B6: Pamitoyl-Ser-Tyr-Ser-Nle-Glu-His-DPhe-Arg-Tyr-Gly-Lys-DPro-Val-NH-(CH2)3-(OCH2CH2)2-CH2-NH2, coupled to capsules (peptide)
# peptide: SYSXEHFRYGKPV
# modifications: N-terminal palmitoyl; Nle at 4 (X); D-Phe at 7; D-Pro at 12; C-terminal NH-(CH2)3-(OCH2CH2)2-CH2-NH2
# notes: Coupled to the outer surface of fluorescent polymer capsules in the assay; Stereochemistry of the residue at 9 is not specified; also called peptide of formula (I), AA1 = Tyrosine
# B7: Pamitoyl-Ser-Tyr-Ser-Nle-Glu-His-DPhe-Arg-(5-hydroxytryptophan)-Gly-Lys-DPro-Val-NH-(CH2)3-(OCH2CH2)2-CH2-NH2, coupled to capsules (peptide)
# peptide: SYSXEHFRXGKPV
# modifications: N-terminal palmitoyl; Nle at 4 (X); D-Phe at 7; 5-hydroxytryptophan at 9 (X); D-Pro at 12; C-terminal NH-(CH2)3-(OCH2CH2)2-CH2-NH2
# notes: Coupled to the outer surface of fluorescent polymer capsules in the assay; also called peptide of formula (I), AA1 = 5-hydroxytryptophan
# B8: Pamitoyl-Ser-Tyr-Ser-Nle-Glu-His-DPhe-Arg-(L-3,4-dihydroxyphenylalanine)-Gly-Lys-DPro-Val-NH-(CH2)3-(OCH2CH2)2-CH2-NH2, coupled to capsules (peptide)
# peptide: SYSXEHFRXGKPV
# modifications: N-terminal palmitoyl; Nle at 4 (X); D-Phe at 7; L-3,4-dihydroxyphenylalanine at 9 (X); D-Pro at 12; C-terminal NH-(CH2)3-(OCH2CH2)2-CH2-NH2
# notes: Coupled to the outer surface of fluorescent polymer capsules in the assay; also called peptide of formula (I), AA1 = L-3,4-dihydroxyphenylalanine
# B9: Ac-Ile-Ser-Leu-Leu-Asp-(d)Ala-Gln-Ser-NH2 (peptide)
# peptide: ISLLDAQS
# HELM: PEPTIDE1{[ac].I.S.L.L.D.[dA].Q.S.[am]}$$$$V2.0
# SMILES: CC[C@H](C)[C@H](NC(C)=O)C(=O)N[C@@H](CO)C(=O)N[C@@H](CC(C)C)C(=O)N[C@@H](CC(C)C)C(=O)N[C@@H](CC(=O)O)C(=O)N[C@H](C)C(=O)N[C@@H](CCC(N)=O)C(=O)N[C@@H](CO)C(N)=O
# B10: Ac-Ile-Ser-(d)Leu-Leu-Asp-(d)Ala-Gln-Ser-NH2 (peptide)
# peptide: ISLLDAQS
# HELM: PEPTIDE1{[ac].I.S.[dL].L.D.[dA].Q.S.[am]}$$$$V2.0
# SMILES: CC[C@H](C)[C@H](NC(C)=O)C(=O)N[C@@H](CO)C(=O)N[C@H](CC(C)C)C(=O)N[C@@H](CC(C)C)C(=O)N[C@@H](CC(=O)O)C(=O)N[C@H](C)C(=O)N[C@@H](CCC(N)=O)C(=O)N[C@@H](CO)C(N)=O
# B11: Palm-Ile-Ser-(d)Leu-Leu-Asp-(d)Ala-Gln-Ser-NH2 (peptide)
# peptide: ISLLDAQS
# HELM: PEPTIDE1{[CCCCCCCCCCCCCCCC(=O)[*:2]].I.S.[dL].L.D.[dA].Q.S.[am]}$$$$V2.0
# SMILES: CCCCCCCCCCCCCCCC(=O)N[C@H](C(=O)N[C@@H](CO)C(=O)N[C@H](CC(C)C)C(=O)N[C@@H](CC(C)C)C(=O)N[C@@H](CC(=O)O)C(=O)N[C@H](C)C(=O)N[C@@H](CCC(N)=O)C(=O)N[C@@H](CO)C(N)=O)[C@@H](C)CC
# B12: Palm-Ile-Ser-Leu-Leu-Asp-(d)Ala-Gln-Ser-NH2 (peptide)
# peptide: ISLLDAQS
# HELM: PEPTIDE1{[CCCCCCCCCCCCCCCC(=O)[*:2]].I.S.L.L.D.[dA].Q.S.[am]}$$$$V2.0
# SMILES: CCCCCCCCCCCCCCCC(=O)N[C@H](C(=O)N[C@@H](CO)C(=O)N[C@@H](CC(C)C)C(=O)N[C@@H](CC(C)C)C(=O)N[C@@H](CC(=O)O)C(=O)N[C@H](C)C(=O)N[C@@H](CCC(N)=O)C(=O)N[C@@H](CO)C(N)=O)[C@@H](C)CC
# B13: Palm-Ile-Ser-Leu-Leu-Asp-Ala-Gln-Ser-NH2 (peptide)
# peptide: ISLLDAQS
# HELM: PEPTIDE1{[CCCCCCCCCCCCCCCC(=O)[*:2]].I.S.L.L.D.A.Q.S.[am]}$$$$V2.0
# SMILES: CCCCCCCCCCCCCCCC(=O)N[C@H](C(=O)N[C@@H](CO)C(=O)N[C@@H](CC(C)C)C(=O)N[C@@H](CC(C)C)C(=O)N[C@@H](CC(=O)O)C(=O)N[C@@H](C)C(=O)N[C@@H](CCC(N)=O)C(=O)N[C@@H](CO)C(N)=O)[C@@H](C)CC
# Target: T1, Melanocortin receptor 1 (MC1R) on melanocytes (human, UniProt Q01726 1-317)
# T1 construct: whole, on cells; also called MC1 receptor; MCR1 receptors on the melanocyte
# T1 sequence (Q01726 whole entry): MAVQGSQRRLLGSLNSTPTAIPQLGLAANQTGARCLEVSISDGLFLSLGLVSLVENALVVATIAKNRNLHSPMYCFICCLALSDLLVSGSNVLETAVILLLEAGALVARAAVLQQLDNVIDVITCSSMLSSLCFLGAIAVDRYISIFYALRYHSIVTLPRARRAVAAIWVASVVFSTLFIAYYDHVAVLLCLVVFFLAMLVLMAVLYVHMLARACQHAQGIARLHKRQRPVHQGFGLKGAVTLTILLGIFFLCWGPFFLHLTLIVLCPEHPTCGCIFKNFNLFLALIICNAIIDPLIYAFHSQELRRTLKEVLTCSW
# Assay: flow cytometry, cell-associated fluorescence of peptide-targeted capsules (50 µg/mL, 37° C., 3 h) on melanocytes in a mixed cell population
# Experimental: Distinct types of cells were incubated with the capsules of the invention (50 μg/mL) which have been targeted with different peptides of formula (Ia) or non-targeted capsules (50 μg/mL) at 37° C. for 3 h. The peptides of formula (I) used to target the capsules in this example are peptides of formula Pamitoyl-Ser-Tyr-Ser-Nle-Glu-His-DPhe-Arg-(AA₁)-Gly-Lys-DPro-Val-NH—(CH₂)₃—(OCH₂CH₂)₂—CH₂—NH₂ wherein the nature of the aminoacid in position 9 (AA₁) is indicated in the first column of table 3. Cells were washed and stained with receptor-specific antibody or isotype control antibody to specifically detect distinct types of cells. Subsequently, cells were analyzed by flow cytometry on a FacsCalibur. The cell associated fluorescence was calculated by dividing the mean cell fluorescence intensity (mfi) for a given sample by the mfi of melanocytes incubated with targeted capsules, which was set at 100% (see FIG. 5 and table 4).
row,Binder,Cell specific binding (%)
1,B1,71
2,B2,75
3,B3,74
4,B4,58
5,B5,85
6,B6,80
7,B7,73
8,B8,80

# Target: Mushroom Tyrosinase (mushroom)
# Assay: cell-based or functional assay
row,Binder,% INHIBITION TYROSINASE [%]
1,Ac-ISLLDAQS-NH2 [Ac-Ile-Ser-Leu-Leu-Asp-Ala-Gln-Ser-NH2],28
2,B9,31
3,B10,40
4,B11,48
5,B12,42
6,B13,39

# Source: patent US20160250128A1 (INFINITEC ACTIVOS S L, published 2016)
